Consider nine molecules from patent publication US20250376538A1.

Test [1] concerns the target plasma-derived coagulation Factor IXa (human) (UniProt P00740). The experiment in a line: FXa generation assay; FIXa stimulation by the one-armed antibody at eight concentrations, fitted with the quadratic binding equation.
For test [2] the target is unchanged. In words: cell-based or functional assay.

By Kd is commonly meant the concentration at which binding is half-saturated. Higher therefore signals lower affinity.

Sequence of UniProt P00740 (P00740 47-191, chain 1 of 2): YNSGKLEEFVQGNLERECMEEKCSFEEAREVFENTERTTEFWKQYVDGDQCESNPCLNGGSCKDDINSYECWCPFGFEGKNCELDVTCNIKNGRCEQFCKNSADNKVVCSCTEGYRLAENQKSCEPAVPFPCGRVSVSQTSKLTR
Sequence of UniProt P00740 (P00740 227-461, chain 2 of 2): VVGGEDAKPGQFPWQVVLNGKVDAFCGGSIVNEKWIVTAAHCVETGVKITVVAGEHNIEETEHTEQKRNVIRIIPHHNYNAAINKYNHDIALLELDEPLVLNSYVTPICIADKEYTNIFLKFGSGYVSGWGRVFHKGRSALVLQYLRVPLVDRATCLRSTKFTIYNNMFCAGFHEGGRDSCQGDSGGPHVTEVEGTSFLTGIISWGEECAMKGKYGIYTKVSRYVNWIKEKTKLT

In the case of “monovalent one-armed (OA) version of the anti-FIXa antibody of emicizumab (ACE910)”, the Kd in test [1] was 1100 nM. Besides, the Stimulation Index (FXa generation assay; estimated at full FIXa saturation) in test [2] was 1370 fold.

B1: monovalent one-armed (OA) antibody of anti-FIX(a) mAb1 (antibody, V domains shown, part only)
VH: EVQLVESGGGLVQPGRSLRLSCAASGFTFHDYAMHWVRQVPGKGLEWVSGISWRGDIGGYVKSVKGRFTISRDNAKNSLYLQMNSLRAEDTALYYCVKSYGSGSFYNAFDSWGQGTLVTVSS
VL: DIQMTQSPSTLSASVGDRVTITCRASQSISSWLAWYQQKPGKAPKFLIYKGSKADRGTPSRFSGSGSGTEFTLTISSLQPDDFATYYCLEYESYIRTFGQGTKVEIK
modifications: constant regions and truncated heavy chain not given
The molecule B1 yielded a Stimulation Index (FXa generation assay; 1599 nM OA antibody) in test [2] of 9840 fold.

B2: monovalent one-armed (OA) antibody of anti-FIX(a) mAb6 (antibody, V domains shown, part only)
VH: EVQLVESGGGLVQPGRSLRLSCAASGFTFHDYAMHWVRQVPGKGLEWVSGISWRGDIGGYVKSVKGRFTISRDNAKNSLYLQMNSLRAEDTALYYCVKSYGSGSFYNAFDSWGQGTLVTVSS
VL: DIQMTQSPSTLSASVGDEVTITCRASQSISSWLAWYQQKPGKAPKFLIYKGSKLDRGTPSRFSGSGSGTEFTLTISSLQPDDFATYYCLEYSSYIRTFGQGTKVEIK
modifications: constant regions and truncated heavy chain not given
In turn, B2 had a Stimulation Index (FXa generation assay; 3547 nM OA antibody) in test [2] of 13500 fold.

B3: monovalent one-armed (OA) antibody of anti-FIX(a) mAb3 (antibody, V domains shown, part only)
VH: EVQLVESGGGLVQPGRSLRLSCAASGFTFHDYAMHWVRQVPGKGLEWVSGISWRGDIGGYVKSVKGRFTISRDNAKNSLYLQMNSLRAEDTALYYCVKSYGSGSFYNAFDSWGQGTLVTVSS
VL: DIQMTQSPSTLSASVGDRVTITCRASQSISSWLAWYQQKPGKAPKFLIYKGSKTDRGTPSRFSGSGSGTEFTLTISSLQPDDFATYYCLEYESYIRTFGQGTKVEIK
modifications: constant regions and truncated heavy chain not given
Consider B3, for which, in test [2], the Stimulation Index (FXa generation assay; 749 nM OA antibody) worked out at 8650 fold.

B4: monovalent one-armed (OA) antibody of anti-FIX(a) mAb5 (antibody, V domains shown, part only)
VH: EVQLVESGGGLVQPGRSLRLSCAASGFTFHDYAMHWVRQVPGKGLEWVSGISWRGDIGGYVKSVKGRFTISRDNAKNSLYLQMNSLRAEDTALYYCVKSYGSGSFYNAFDSWGQGTLVTVSS
VL: DIQMTQSPSTLSASVGDEVTITCRASQSISSWLAWYQQKPGKAPKFLIYKGEKLDRGTPSRFSGSGSGTEFTLTISSLQPDDFATYYCLEYSSYIRTFGQGTKVEIK
modifications: constant regions and truncated heavy chain not given
Consider B4, for which the Stimulation Index (FXa generation assay; 1463 nM OA antibody) in test [2] came out at 11200 fold.

B5: monovalent one-armed (OA) antibody of anti-FIX(a) mAb7 (antibody, V domains shown, part only)
VH: EVQLVESGGGLVQPGRSLRLSCAASGFTFHDYAMHWVRQVPGKGLEWVSGISWRGDIGGYVKSVKGRFTISRDNAKNSLYLQMNSLRAEDTALYYCVKSYGSGSFYNAFDSWGQGTLVTVSS
VL: DIQMTQSPSTLSASVGDEVTITCRASQSISSWLAWYQQKPGKAPKFLIYKAEKLDRGTPSRFSGSGSGTEFTLTISSLQPDDFATYYCLEYESYIRTFGQGTKVEIK
modifications: constant regions and truncated heavy chain not given
In test [2], B5 displayed a Stimulation Index (FXa generation assay; 851 nM OA antibody) of 8730 fold.

B6: monovalent one-armed (OA) antibody of anti-FIX(a) mAb2 (antibody, V domains shown, part only)
VH: EVQLVESGGGLVQPGRSLRLSCAASGFTFHDYAMHWVRQVPGKGLEWVSGISWRGDIGGYVKSVKGRFTISRDNAKNSLYLQMNSLRAEDTALYYCVKSYGSGSFYNAFDSWGQGTLVTVSS
VL: DIQMTQSPSTLSASVGDRVTITCRASQSISSWLAWYQQKPGKAPKFLIYKGSKQDRGTPSRFSGSGSGTEFTLTISSLQPDDFATYYCLEYSSYIRTFGQGTKVEIK
modifications: constant regions and truncated heavy chain not given
Take B6: the Stimulation Index (FXa generation assay; 5640 nM OA antibody) in test [2] was determined as 14200 fold.

B7: monovalent one-armed (OA) antibody of anti-FIX(a) mAb4 (antibody, V domains shown, part only)
VH: EVQLVESGGGLVQPGRSLRLSCAASGFTFHDYAMHWVRQVPGKGLEWVSGISWRGDIGGYVKSVKGRFTISRDNAKNSLYLQMNSLRAEDTALYYCVKSYGSGSFYNAFDSWGQGTLVTVSS
VL: DIQMTQSPSTLSASVGDRVTITCRASQSISSWLAWYQQKPGKAPKFLIYKSEKLDRGTPSRFSGSGSGTEFTLTISSLQPDDFATYYCLEYESYIRTFGQGTKVEIK
modifications: constant regions and truncated heavy chain not given
For B7, in test [2], the Stimulation Index (FXa generation assay; 1217 nM OA antibody) came out at 10500 fold.

B8: monovalent one-armed (OA) antibody of anti-FIX(a) mAb8 (antibody, V domains shown, part only)
VH: EVQLVESGGGLVQPGRSLRLSCAASGFTFHDYAMHWVRQVPGKGLEWVSGISWRGDIGGYVKSVKGRFTISRDNAKNSLYLQMNSLRAEDTALYYCVKSYGSGSFYNAFDSWGQGTLVTVSS
VL: DIQMTQSPSTLSASVGDRVTITCRASQSISSWLAWYQQKPGKAPKFLIYKAEKLDRGTPSRFSGSGSGTEFTLTISSLQPDDFATYYCLEYESYIRTFGQGTKVEIK
modifications: constant regions and truncated heavy chain not given
In turn, B8 yielded a Stimulation Index (FXa generation assay; 1276 nM OA antibody) in test [2] of 10100 fold.
